The target of assay [1] is T1, TRAIL-R2 on cells (TRAIL-R2+ human melanoma and other tumor cell lines) (human, UniProt O14763 56-440).
T1 construct: whole, on cells; Endogenous receptor on cell lines; also called TRAIL-R2+ cells
Nature of the assay: soluble scFv on TRAIL-R2+ cells.

Assay [2] concerns the target T2, naive TRAIL-R2 captured from SU-DHL-4 cell lysate (human, UniProt O14763 56-440, limits assumed).
T2 construct: also called naïve TRAIL-R2; natural TRAIL-R2
Kind of assay: single clone phage ELISA (scFv on phage), TRAIL-R2 captured from SU-DHL-4 lysate.

Assay [3] has as its target T3, Recombinant human TRAIL-R2 (R&D Systems) (human, UniProt O14763 54-182, limits assumed).
T3 construct: Bought recombinant protein, amine-coupled to a CM5 chip; also called TRAIL-R2 recombinant protein; recombinant receptor
Kind of assay: SPR (BIAcore), recombinant TRAIL-R2 immobilised on a CM5 chip, 5 scDb concentrations from 400 to 25 nM. (SPR reads the build-up and loss of mass on a sensor chip optically.)

Results on three molecules are retold here after US20180250396A1 (FONDAZIONE IRCCS ISTITUTO NAZIONALE DEI TUMORI, published 2018).

B1: Clone 44 anti-TRAIL-R2 ScFv isolated with Phage Display (scFv)
scFv: QVHLRESGGGLVQPGRSLRLSCAASGFTFDDYAMHWVRQAPGKGLEWVSGISWNSGSISYADSVKGRFTISRDNAKNSLYLQMSSLRSEDTAVYYCARDPNHGGDRRDDALDMWGQGTMVTVSSGGGGSGGGGSGGGGSSELTQDPAVSVALGQTVRITCQGHSLRSYFASWYQQRPRQAPTLVIYGKNNRPSGIPDRFSGSSSGNTASLTITGAQAEDEADYYCGSRDSSSTHRGVFGGGTKLTVLGAA
notes: Tested on phage and as soluble scFv
As for B1, the binding result in assay [1] and in assay [2] was “binds” throughout.

B2: Clone 8 anti-TRAIL-R2 ScFv isolated with Phage Display (scFv)
scFv: EVQLLESGGGLVQPGGSLRLSCAASGFTFSSYAMSWVRQAPGKGLEWVSAISQQGQVTDYADSVKGRFTISRDNSKNTLYLQMNSLRAEDTAVYYCAKRWNRFDYWGQGTLVIVSSGGGGSGGGGSGGGGSTDIQMTQSPSSLSASVGDRVTITCRASQSISSYLNWYQQKPGKAPKLLIYAASGLQSGVPSRFSGSGSGTDFTLTISSLQPEDFATYYCQQHSMSPNTFGQGTKVEIKRAA
notes: as for B1
Consider B2, for which the binding result in assay [1] and in assay [2] was “binds” each time.

B3: scDb 16e2/hUCTH1 (bispecific antibody)
chain: EVQLVQSGGGVERPGGSLRLSCAASGFTFDDYGMSWVRQAPGKGLEWVSGINWNGGSTGYADSVKGRVTISRDNAKNSLYLQMNSLRAEDTAVYYCAKILGAGRGWYFDLWGKGTTVTVSSTGGGGSDIQMTQSPSSLSASVGDRVTITCRASQDIRNYLNWYQQKPGKAPKLLIYYTSRLESGVPSRFSGSGSGTDYTLTISSLQPEDFATYYCQQGNTLPWTFGQGTKVEIKRGGGGSGGGGSGGGGSEVQLVESGGGLVQPGGSLRLSCAASGYSFTGYTMNWVRQAPGKGLEWVALINPYKGVSTYNQKFKDRFTISVDKSKNTAYLQMNSLRAEDTAVYYCARSGYYGDSDWYFDVWGQGTLVTVSSGGGGSRSELTQDPAVSVALGQTVRITCQGDSLRSYYASWYQQKPGQAPVLVIYGKNNRPSGIPDRFSGSSSGNTASLTITGAQAEDEADYYCNSRDSSGNHVVFGGGTKLTVLAAAHHHHHHGAAEQKLISEEDLNGAA
notes: Made in E. coli HB2151 periplasm; also called 16e2×hUCTH1 scDb; 16E2×hUCTH1 scDb
As to B3, the equilibrium dissociation constant (Kd) in assay [3] came out at 148 nM.

One may read the Kd as the equilibrium constant for the complex coming apart.
